Reference: patent US20210324080A1 (JIANGSU HUAIYU PHARMACEUTICAL, published 2021)
Positions count from the first letter of the chain named.

T1: CTLA-4 on human T lymphocytes (PBMC, CD3+ T cells) (human, UniProt P16410 36-223)
T1 sequence (looked up): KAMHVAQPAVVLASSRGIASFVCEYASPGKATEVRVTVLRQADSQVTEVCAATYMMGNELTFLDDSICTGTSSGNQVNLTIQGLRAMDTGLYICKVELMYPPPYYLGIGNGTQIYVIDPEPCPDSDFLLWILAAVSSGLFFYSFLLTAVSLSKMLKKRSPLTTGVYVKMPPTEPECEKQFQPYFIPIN

T2: human CTLA-4 (Y201V), full length, on transfected cells (human, UniProt P16410 36-223)
T2 construct: whole, on cells; also called hCTLA-4; HEK293-hCTLA-4 (Y201V)
T2 sequence (looked up): T1 sequence (looked up) with Y166V

T3: CTLA-4-hFc (immunogen A; hFc-labeled CTLA-4 extracellular domain protein) (human, UniProt P16410 36-161)
T3 construct: range 36-161; Made in HEK293 cells, purified on protein A; also called CLTA-4-hFc; CTLA-4 protein; not shown: human IgG Fc fragment (hFc) of the pCpC vector
T3 sequence (looked up): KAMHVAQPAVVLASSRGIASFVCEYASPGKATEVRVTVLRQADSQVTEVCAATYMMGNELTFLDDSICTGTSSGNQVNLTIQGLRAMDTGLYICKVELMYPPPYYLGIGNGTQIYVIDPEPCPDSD

B1: 40C4C6 fully human CTLA-4 antibody (human IgG1, kappa) (antibody, V domains shown)
VH: QVQLVESGGGVVQPGRSLRLSCAASGFTFSSYGMHWVRQAPGKGLEWVAVIWYDGRNKYYADSVKGRFTISRDNSKNTLYLQMNSLRAEDTAVYYCARASGSYSYYFDYWGQGTLVTVSS
VL: DIQMTQSPSSLSASVGGRVTITCRASQSISSFLNWYQHELGKAPKLLIYGASSLQSGVPSRFSGSGSGTDFTLTISSLQPEDFATYYCQQTYSTPFTFGPGTKVDIK
notes: also called mAb09; mAb009
B2: 31C12F3 fully human CTLA-4 antibody (human IgG1, kappa) (antibody, V domains shown)
VH: QVQLVESGGGVVQPGRSLILSCAASGFTFSSYGMHWVRQAPGKGLEWVAVVWYDGSNKYYADSVKGRFTISRDNSKNTLYLQMSSLRAEDTAVYYCARGGIVVPGLFEYWGQGSLVTVSS
VL: DIQMTQSPSSLSASVGDRVAITCRTSQSISNLLNWYQQKPGKAPELLIYAPSSFQSGVPSRFRGSGSGTDFTLTISSLQPEDFATYYCQQSYSTPFTFGPGTKVDIK
notes: also called mAb010
B3: 92C8B6 fully human CTLA-4 antibody (human IgG1, kappa) (antibody, V domains shown)
VH: QVQLVESGGGVVQPGRSLRLSCAASGFTFSNFGMHWVRQAPGKGLEWVAVIWYDGSNKYYADSVKGRFTISRDNSKNTLFLQMNGLRAEDTAVYYCAKGGILMAGTLDYWGQGTLVTVSS
VL: B2 VL with A20T, T25A, I29V, N31T, L32Y, E45K, P51A, R63S, Y87F
notes: also called mAb42; mAb042
B4: 97A8D1 fully human CTLA-4 antibody (human IgG1, kappa) (antibody, V domains shown)
VH: QVQLVESGGGVVQPGRSLRLSCVASGFTFNNYGMNWVRQAPGKGLEWVAVIWYGGRNKFYADSVKGRFTISRDNSKNTLYLEMNSLRAEDTAVYYCARADWGGWFDPWGQGTLVTVSS
VL: EIVLTQSPGTLSLSPGERATLSCRASQSVSSTYLAWYQQKPGQAPRLLIHGAFSRATGIPDRFSGSGSGPDFTLTISRLEPEDFAVYYCQQYGTSPFTFGPGTKVDIK
notes: also called mAb49; mAb049

The binders below were run against T1, CTLA-4 on human T lymphocytes (PBMC, …) (assay: cell-based or functional assay).

Row | Binder | IL-2 secretion, pg/ml, at 0.13 ug/ml, N = 1 | IL-2 secretion, pg/ml, at 0.13 ug/ml, N = 2 | IL-2 secretion, pg/ml, at 0.37 ug/ml, N = 1 | IL-2 secretion, pg/ml, at 0.37 ug/ml, N = 2 | IL-2 secretion, pg/ml, at 1.1 ug/ml, N = 1 | IL-2 secretion, pg/ml, at 1.1 ug/ml, N = 2 | IL-2 secretion, pg/ml, at 3.3 ug/ml, N = 1 | IL-2 secretion, pg/ml, at 3.3 ug/ml, N = 2 | IL-2 secretion, pg/ml, at 10 ug/ml, N = 1 | IL-2 secretion, pg/ml, at 10 ug/ml, N = 2
1 | B1 | 2140 pg/mL | 1830 pg/mL | 2370 pg/mL | 2160 pg/mL | 3200 pg/mL | 3010 pg/mL | 3770 pg/mL | 3620 pg/mL | 5270 pg/mL | 4810 pg/mL
2 | B2 | 1660 pg/mL | 1630 pg/mL | 1760 pg/mL | 2000 pg/mL | 2650 pg/mL | 3630 pg/mL | 4420 pg/mL | 3330 pg/mL | 5020 pg/mL | 3810 pg/mL
3 | B3 | 1570 pg/mL | 1390 pg/mL | 2810 pg/mL | 1860 pg/mL | 3610 pg/mL | 2930 pg/mL | 4860 pg/mL | 3490 pg/mL | 6670 pg/mL | 5200 pg/mL
4 | B4 | 1520 pg/mL | 1500 pg/mL | 2110 pg/mL | 1960 pg/mL | 2660 pg/mL | 2610 pg/mL | 4660 pg/mL | 3330 pg/mL | 5080 pg/mL | 5560 pg/mL

Same assay, conditions: not given

Row | Binder | IL-2 secretion, pg/ml, at 30 ug/ml, N = 1 | IL-2 secretion, pg/ml, at 30 ug/ml, N = 2
5 | B1 | 6840 pg/mL | 7410 pg/mL
6 | B2 | 5920 pg/mL | 7370 pg/mL
7 | B3 | 7240 pg/mL | 6590 pg/mL
8 | B4 | 6090 pg/mL | 7540 pg/mL

What follows are binders tested against T2, human CTLA-4 (Y201V), full length, on … (assay: FACS, human CTLA-4 expressing cells).

Row | Binder | MFI at 0.000128 nM | MFI at 0.0128 nM | MFI at 0.064 nM | MFI at 0.32 nM | MFI at 1.6 nM | MFI at 8 nM | MFI at 40 nM | MFI at 200 nM
9 | B1 | 3 | 24 | 74 | 233 | 553 | 795 | 967 | 963
10 | B2 | 3 | 34 | 96 | 260 | 547 | 756 | 941 | 998
11 | B3 | 3 | 23 | 67 | 203 | 509 | 827 | 1040 | 1060
12 | B4 | 3 | 22 | 66 | 196 | 580 | 919 | 1020 | 1020

These binders were tested against T3, CTLA-4-hFc (immunogen A; hFc-labeled …) (assay: blocking assay, CTLA-4 protein, competitor B7.1).
Method: (§1) CTLA-4 extracellular domain protein (CTLA-4-hFc) was diluted with PBS to a final concentration of 1.0 μg/mL, and then added to a 96-well ELISA plate as 100 μl per well. The plate was covered with a plastic film and incubated overnight at 4° C. The plate was washed twice with plate washing solution [PBS containing 0.01% (v/v) Tween 20] on the next day, and added with blocking solution [PBS containing 0.01% (v/v) Tween 20 and 1% (w/w) BSA] and blocked at room temperature for 2 hours. […] After 2 hours, the plate was washed 3 times with a plate washing solution [PBS containing 0.01% (v/v) Tween 20]. HRP (horseradish peroxidase) labeled avidin diluent (purchased from Sigma) was added 100 microliters per well, and after the plate was incubated for 2 hours at 37° C., it was washed with plate washing solution [PBS containing 0.01% (v/v) Tween 20] for 3 times. […] TMB substrate was added to each well. After incubated at room temperature for 30 minutes, the plate was added with […] stop solution (1.0N HCl) to each well. An ELISA plate reader (SpectraMax 384plus, Molecular Device) was used to read the A450 nm value.

Row | Binder | % Block at 0.000128 nM | % Block at 0.0128 nM | % Block at 0.064 nM | % Block at 0.32 nM | % Block at 1.6 nM | % Block at 8 nM | % Block at 40 nM | % Block at 200 nM
13 | B1 | 0% | 9.3% | 35% | 82.1% | 98.1% | 99.2% | 99.4% | 99.4%
14 | B2 | 0% | 5.1% | 30.4% | 74.5% | 95.9% | 98.5% | 99.1% | 99.3%
15 | B3 | 0% | 5.3% | 21.4% | 65.1% | 93.7% | 98.1% | 98.9% | 99.3%
16 | B4 | 0% | 6.1% | 28.7% | 67.8% | 90.6% | 95.2% | 97.2% | 98.4%

What follows are binders tested against T3, CTLA-4-hFc (immunogen A; hFc-labeled …) (assay: receptor-ligand blocking assay: CTLA-4 protein, antibody titrated, blocked ligand B7.1, inhibition (%)).
Method: as §1

Row | Binder | IC50 (read off the curve)
17 | B3 | 1 to 2 nM
18 | B4 | 1 to 2 nM
